In US7183387 (Genentech, dated 2007):

T1: human FcγRIIB α subunit extracellular domain-6His-GST fusion (human, UniProt P31994 43-217)
T1 construct: not shown: glutathione S-transferase (GST)
T1 sequence: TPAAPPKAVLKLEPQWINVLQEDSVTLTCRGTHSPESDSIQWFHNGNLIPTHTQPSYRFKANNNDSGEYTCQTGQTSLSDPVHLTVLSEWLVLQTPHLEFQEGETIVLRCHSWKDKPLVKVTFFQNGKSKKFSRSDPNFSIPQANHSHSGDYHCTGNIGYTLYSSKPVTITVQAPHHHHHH

T2: human FcγRIIA-R131 α subunit extracellular domain-6His-GST fusion (human, UniProt P12318 34-217)
T2 construct: also called FcγRIIA-Arg131; not shown: glutathione S-transferase (GST)
T2 sequence: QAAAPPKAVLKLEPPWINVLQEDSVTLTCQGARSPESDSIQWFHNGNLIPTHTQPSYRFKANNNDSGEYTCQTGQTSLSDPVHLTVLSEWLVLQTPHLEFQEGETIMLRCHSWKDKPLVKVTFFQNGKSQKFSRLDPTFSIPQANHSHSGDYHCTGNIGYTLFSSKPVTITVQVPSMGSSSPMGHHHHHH


Columns and labels:
Assay in all cases: ELISA, IgG:IgE hexamers on receptor-GST
[1] = target: T1, human FcγRIIB α subunit extracellular …
[2] = target: T2, human FcγRIIA-R131 α subunit …
[3] = target: T3, human FcγRIIIA-F158 α subunit extracellular domain-6His-GST fusion (human, UniProt P08637 17-208)
T3 construct: also called FcγRIIIA-Phe158; not shown: glutathione S-transferase (GST)
T3 sequence (P08637 other isoform, or with tags, fused parts or gaps, form in doubt): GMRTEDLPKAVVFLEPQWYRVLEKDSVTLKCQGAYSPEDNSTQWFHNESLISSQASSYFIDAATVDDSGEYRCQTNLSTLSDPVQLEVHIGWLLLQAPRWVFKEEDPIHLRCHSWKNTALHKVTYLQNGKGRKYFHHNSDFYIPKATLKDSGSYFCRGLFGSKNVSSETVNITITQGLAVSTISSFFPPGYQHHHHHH

Binder | ratio to native IgG1 [1] | ratio to native IgG1 [2] | ratio to native IgG1 [3]
E27 IgG1 variant K334(353)G (antibody, also called IG2 179) heavy: not shown light: DIQLTQSPSSLSASVGDRVTITCRASKPVDGEGDSYLNWYQQKPGKAPKLLIYAASYLESGVPSRFSGSGSGTDFTLTISSLQPEDFATYYCQQSHEDPYTFGQGTKVEIKRTVAAPSVFIFPPSDEQLKSGTASVVCLLNNFYPREAKVQWKVDNALQSGNSQESVTEQDSKDSTYSLSSTLTLSKADYEKHKVYACEVTHQGLSSPVTKSFNRGEC | 0.6 | 0.76 | 0.88
E27 IgG1 variant D265(278)N (antibody) heavy: not shown light: DIQLTQSPSSLSASVGDRVTITCRASKPVDGEGDSYLNWYQQKPGKAPKLLIYAASYLESGVPSRFSGSGSGTDFTLTISSLQPEDFATYYCQQSHEDPYTFGQGTKVEIKRTVAAPSVFIFPPSDEQLKSGTASVVCLLNNFYPREAKVQWKVDNALQSGNSQESVTEQDSKDSTYSLSSTLTLSKADYEKHKVYACEVTHQGLSSPVTKSFNRGEC | 0.03 | 0.02 | 0.02
E27 IgG1 variant D270(283)N (antibody, also called IG2 92) heavy: not shown light: DIQLTQSPSSLSASVGDRVTITCRASKPVDGEGDSYLNWYQQKPGKAPKLLIYAASYLESGVPSRFSGSGSGTDFTLTISSLQPEDFATYYCQQSHEDPYTFGQGTKVEIKRTVAAPSVFIFPPSDEQLKSGTASVVCLLNNFYPREAKVQWKVDNALQSGNSQESVTEQDSKDSTYSLSSTLTLSKADYEKHKVYACEVTHQGLSSPVTKSFNRGEC | 0.05 | 0.03 | 0.04
E27 IgG1 variant A327(346)G (antibody) heavy: not shown light: DIQLTQSPSSLSASVGDRVTITCRASKPVDGEGDSYLNWYQQKPGKAPKLLIYAASYLESGVPSRFSGSGSGTDFTLTISSLQPEDFATYYCQQSHEDPYTFGQGTKVEIKRTVAAPSVFIFPPSDEQLKSGTASVVCLLNNFYPREAKVQWKVDNALQSGNSQESVTEQDSKDSTYSLSSTLTLSKADYEKHKVYACEVTHQGLSSPVTKSFNRGEC | 0.83 | 0.92 | 0.36
E27 IgG1 variant A330(349)D (antibody) heavy: not shown light: DIQLTQSPSSLSASVGDRVTITCRASKPVDGEGDSYLNWYQQKPGKAPKLLIYAASYLESGVPSRFSGSGSGTDFTLTISSLQPEDFATYYCQQSHEDPYTFGQGTKVEIKRTVAAPSVFIFPPSDEQLKSGTASVVCLLNNFYPREAKVQWKVDNALQSGNSQESVTEQDSKDSTYSLSSTLTLSKADYEKHKVYACEVTHQGLSSPVTKSFNRGEC | 0.08 | 0.18 | 0.07
E27 IgG1 variant A330(349)K (antibody, also called IG2 197) heavy: not shown light: DIQLTQSPSSLSASVGDRVTITCRASKPVDGEGDSYLNWYQQKPGKAPKLLIYAASYLESGVPSRFSGSGSGTDFTLTISSLQPEDFATYYCQQSHEDPYTFGQGTKVEIKRTVAAPSVFIFPPSDEQLKSGTASVVCLLNNFYPREAKVQWKVDNALQSGNSQESVTEQDSKDSTYSLSSTLTLSKADYEKHKVYACEVTHQGLSSPVTKSFNRGEC | 1.25 | 1.28 | 1.28
E27 IgG1 variant D249(262)E (antibody, also called IG2 222) heavy: not shown light: DIQLTQSPSSLSASVGDRVTITCRASKPVDGEGDSYLNWYQQKPGKAPKLLIYAASYLESGVPSRFSGSGSGTDFTLTISSLQPEDFATYYCQQSHEDPYTFGQGTKVEIKRTVAAPSVFIFPPSDEQLKSGTASVVCLLNNFYPREAKVQWKVDNALQSGNSQESVTEQDSKDSTYSLSSTLTLSKADYEKHKVYACEVTHQGLSSPVTKSFNRGEC | 0.99 | 0.97 | 0.84
E27 IgG1 variant A327(346)S (antibody) heavy: not shown light: DIQLTQSPSSLSASVGDRVTITCRASKPVDGEGDSYLNWYQQKPGKAPKLLIYAASYLESGVPSRFSGSGSGTDFTLTISSLQPEDFATYYCQQSHEDPYTFGQGTKVEIKRTVAAPSVFIFPPSDEQLKSGTASVVCLLNNFYPREAKVQWKVDNALQSGNSQESVTEQDSKDSTYSLSSTLTLSKADYEKHKVYACEVTHQGLSSPVTKSFNRGEC | 0.22 | 0.23 | 0.06
E27 IgG1 variant E269(282)D (antibody) heavy: not shown light: DIQLTQSPSSLSASVGDRVTITCRASKPVDGEGDSYLNWYQQKPGKAPKLLIYAASYLESGVPSRFSGSGSGTDFTLTISSLQPEDFATYYCQQSHEDPYTFGQGTKVEIKRTVAAPSVFIFPPSDEQLKSGTASVVCLLNNFYPREAKVQWKVDNALQSGNSQESVTEQDSKDSTYSLSSTLTLSKADYEKHKVYACEVTHQGLSSPVTKSFNRGEC | 0.73 | 0.89 | 1.13
E27 IgG1 variant E333(352)D (antibody) heavy: not shown light: DIQLTQSPSSLSASVGDRVTITCRASKPVDGEGDSYLNWYQQKPGKAPKLLIYAASYLESGVPSRFSGSGSGTDFTLTISSLQPEDFATYYCQQSHEDPYTFGQGTKVEIKRTVAAPSVFIFPPSDEQLKSGTASVVCLLNNFYPREAKVQWKVDNALQSGNSQESVTEQDSKDSTYSLSSTLTLSKADYEKHKVYACEVTHQGLSSPVTKSFNRGEC |  |  | 1.26
E27 IgG1 variant E333(352)S (antibody, also called IG2 143) heavy: not shown light: DIQLTQSPSSLSASVGDRVTITCRASKPVDGEGDSYLNWYQQKPGKAPKLLIYAASYLESGVPSRFSGSGSGTDFTLTISSLQPEDFATYYCQQSHEDPYTFGQGTKVEIKRTVAAPSVFIFPPSDEQLKSGTASVVCLLNNFYPREAKVQWKVDNALQSGNSQESVTEQDSKDSTYSLSSTLTLSKADYEKHKVYACEVTHQGLSSPVTKSFNRGEC |  |  | 0.94
E27 IgG1 variant E269(282)Q (antibody, also called IG2 169) heavy: not shown light: DIQLTQSPSSLSASVGDRVTITCRASKPVDGEGDSYLNWYQQKPGKAPKLLIYAASYLESGVPSRFSGSGSGTDFTLTISSLQPEDFATYYCQQSHEDPYTFGQGTKVEIKRTVAAPSVFIFPPSDEQLKSGTASVVCLLNNFYPREAKVQWKVDNALQSGNSQESVTEQDSKDSTYSLSSTLTLSKADYEKHKVYACEVTHQGLSSPVTKSFNRGEC | 0.16 | 0.08 | 0.28
E27 IgG1 variant D265(278)E (antibody, also called IG2 158) heavy: not shown light: DIQLTQSPSSLSASVGDRVTITCRASKPVDGEGDSYLNWYQQKPGKAPKLLIYAASYLESGVPSRFSGSGSGTDFTLTISSLQPEDFATYYCQQSHEDPYTFGQGTKVEIKRTVAAPSVFIFPPSDEQLKSGTASVVCLLNNFYPREAKVQWKVDNALQSGNSQESVTEQDSKDSTYSLSSTLTLSKADYEKHKVYACEVTHQGLSSPVTKSFNRGEC | 0.03 | 0.11 | 0.02
E27 IgG1 variant D270(283)E (antibody, also called IG2 93) heavy: not shown light: DIQLTQSPSSLSASVGDRVTITCRASKPVDGEGDSYLNWYQQKPGKAPKLLIYAASYLESGVPSRFSGSGSGTDFTLTISSLQPEDFATYYCQQSHEDPYTFGQGTKVEIKRTVAAPSVFIFPPSDEQLKSGTASVVCLLNNFYPREAKVQWKVDNALQSGNSQESVTEQDSKDSTYSLSSTLTLSKADYEKHKVYACEVTHQGLSSPVTKSFNRGEC | 0.06 | 0.08 | 0.9
E27 IgG1 variant D280(295)N (antibody, also called IG2 79) heavy: not shown light: DIQLTQSPSSLSASVGDRVTITCRASKPVDGEGDSYLNWYQQKPGKAPKLLIYAASYLESGVPSRFSGSGSGTDFTLTISSLQPEDFATYYCQQSHEDPYTFGQGTKVEIKRTVAAPSVFIFPPSDEQLKSGTASVVCLLNNFYPREAKVQWKVDNALQSGNSQESVTEQDSKDSTYSLSSTLTLSKADYEKHKVYACEVTHQGLSSPVTKSFNRGEC | 1.22 | 1.07 | 1.16
E27 IgG1 variant E333(352)K (antibody) heavy: not shown light: DIQLTQSPSSLSASVGDRVTITCRASKPVDGEGDSYLNWYQQKPGKAPKLLIYAASYLESGVPSRFSGSGSGTDFTLTISSLQPEDFATYYCQQSHEDPYTFGQGTKVEIKRTVAAPSVFIFPPSDEQLKSGTASVVCLLNNFYPREAKVQWKVDNALQSGNSQESVTEQDSKDSTYSLSSTLTLSKADYEKHKVYACEVTHQGLSSPVTKSFNRGEC |  |  | 0.85
E27 IgG1 variant S267(280)T (antibody) heavy: not shown light: DIQLTQSPSSLSASVGDRVTITCRASKPVDGEGDSYLNWYQQKPGKAPKLLIYAASYLESGVPSRFSGSGSGTDFTLTISSLQPEDFATYYCQQSHEDPYTFGQGTKVEIKRTVAAPSVFIFPPSDEQLKSGTASVVCLLNNFYPREAKVQWKVDNALQSGNSQESVTEQDSKDSTYSLSSTLTLSKADYEKHKVYACEVTHQGLSSPVTKSFNRGEC | 0.45 | 0.42 | 
E27 IgG1 variant D280(295)S (antibody) heavy: not shown light: DIQLTQSPSSLSASVGDRVTITCRASKPVDGEGDSYLNWYQQKPGKAPKLLIYAASYLESGVPSRFSGSGSGTDFTLTISSLQPEDFATYYCQQSHEDPYTFGQGTKVEIKRTVAAPSVFIFPPSDEQLKSGTASVVCLLNNFYPREAKVQWKVDNALQSGNSQESVTEQDSKDSTYSLSSTLTLSKADYEKHKVYACEVTHQGLSSPVTKSFNRGEC | 1.04 | 1.07 | 1.09
